Assay results from patent US9081020B2, “Mutant proteins and methods for selecting them” (Heptares Therapeutics Limited, priority 2008, dated 2015).
Read-outs that look alike come from different tables or passages of the source.

B1: L65A/W101A: M1 mAChR double mutant, W101A on L65A background (protein, UniProt P11229 1-460, looked up, variant L65A W101A)
Muscarinic acetylcholine …: MNTSAPPAVSPNITVLAPGKGPWQVAFIGITTGLLSLATVTGNLLVLISFKVNTELKTVNNYFLASLACADLIIGTFSMNLYTTYLLMGHWALGTLACDLALALDYVASNASVMNLLLISFDRYFSVTRPLSYRAKRTPRRAALMIGLAWLVSFVLWAPAILFWQYLVGERTVLAGQCYIQFLSQPIITFGTAMAAFYLPVTVMCTLYWRIYRETENRARELAALQGSETPGKGGGSSSSSERSQPGAEGSPETPPGRCCRCCRAPRLLQAYSWKEEEEEDEGSMESLTSSEGEEPGSEVVIKMPMVDPEAQAPTKQPPRSSPNTVKRPTKKGRDRAGKGQKPRGKEQLAKRKTFSLVKEKKAARTLSAILLAFILTWTPYNIMVLVSTFCKDCVPETLWELGYWLCYVNSTINPMCYALCNKAFRDTFRLLLLCRWDKRRWRKIPKRPGSVHRTPSRQC
B2: L65A/Y82A: M1 mAChR double mutant, Ala mutation on L65A background (protein, UniProt P11229 1-460, looked up, variant L65A Y82A)
Muscarinic acetylcholine …: MNTSAPPAVSPNITVLAPGKGPWQVAFIGITTGLLSLATVTGNLLVLISFKVNTELKTVNNYFLASLACADLIIGTFSMNLATTYLLMGHWALGTLACDLWLALDYVASNASVMNLLLISFDRYFSVTRPLSYRAKRTPRRAALMIGLAWLVSFVLWAPAILFWQYLVGERTVLAGQCYIQFLSQPIITFGTAMAAFYLPVTVMCTLYWRIYRETENRARELAALQGSETPGKGGGSSSSSERSQPGAEGSPETPPGRCCRCCRAPRLLQAYSWKEEEEEDEGSMESLTSSEGEEPGSEVVIKMPMVDPEAQAPTKQPPRSSPNTVKRPTKKGRDRAGKGQKPRGKEQLAKRKTFSLVKEKKAARTLSAILLAFILTWTPYNIMVLVSTFCKDCVPETLWELGYWLCYVNSTINPMCYALCNKAFRDTFRLLLLCRWDKRRWRKIPKRPGSVHRTPSRQC
B3: L65A/L144A: M1 mAChR double mutant, Ala mutation on L65A background (protein, UniProt P11229 1-460, looked up, variant L65A L144A)
Muscarinic acetylcholine …: MNTSAPPAVSPNITVLAPGKGPWQVAFIGITTGLLSLATVTGNLLVLISFKVNTELKTVNNYFLASLACADLIIGTFSMNLYTTYLLMGHWALGTLACDLWLALDYVASNASVMNLLLISFDRYFSVTRPLSYRAKRTPRRAAAMIGLAWLVSFVLWAPAILFWQYLVGERTVLAGQCYIQFLSQPIITFGTAMAAFYLPVTVMCTLYWRIYRETENRARELAALQGSETPGKGGGSSSSSERSQPGAEGSPETPPGRCCRCCRAPRLLQAYSWKEEEEEDEGSMESLTSSEGEEPGSEVVIKMPMVDPEAQAPTKQPPRSSPNTVKRPTKKGRDRAGKGQKPRGKEQLAKRKTFSLVKEKKAARTLSAILLAFILTWTPYNIMVLVSTFCKDCVPETLWELGYWLCYVNSTINPMCYALCNKAFRDTFRLLLLCRWDKRRWRKIPKRPGSVHRTPSRQC
B4: L65F: M1 mAChR mutant L65F, homologous to M4 mAChR (protein)
chain: MNTSAPPAVSPNITVLAPGKGPWQVAFIGITTGLLSLATVTGNLLVLISFKVNTELKTVNNYFLFSLACADLIIGTFSMNLYTTYLLMGHWALGTLACDLWLALDYVASNASVMNLLLISFDRYFSVTRPLSYRAKRTPRRAALMIGLAWLVSFVLWAPAILFWQYLVGERTVLAGQCYIQFLSQPIITFGTAMAAFYLPVTVMCTLYWRIYRETENRARELAALQGSETPGKGGGSSSSSERSQPGAEGSPETPPGRCCRCCRAPRLLQAYSWKEEEEEDEGSMESLTSSEGEEPGSEVVIKMPMVDPEAQAPTKQPPRSSPNTVKRPTKKGRDRAGKGQKPRGKEQLAKRKTFSLVKEKKAARTLSAILLAFILTWTPYNIMVLVSTFCKDCVPETLWELGYWLCYVNSTINPMCYALCNKAFRDTFRLLLLCRWDKRRWRKIPKRPGSVHRTPSRQC
B5: L65V: M1 mAChR mutant L65V selected from random mutagenesis screen (protein)
chain: MNTSAPPAVSPNITVLAPGKGPWQVAFIGITTGLLSLATVTGNLLVLISFKVNTELKTVNNYFLVSLACADLIIGTFSMNLYTTYLLMGHWALGTLACDLWLALDYVASNASVMNLLLISFDRYFSVTRPLSYRAKRTPRRAALMIGLAWLVSFVLWAPAILFWQYLVGERTVLAGQCYIQFLSQPIITFGTAMAAFYLPVTVMCTLYWRIYRETENRARELAALQGSETPGKGGGSSSSSERSQPGAEGSPETPPGRCCRCCRAPRLLQAYSWKEEEEEDEGSMESLTSSEGEEPGSEVVIKMPMVDPEAQAPTKQPPRSSPNTVKRPTKKGRDRAGKGQKPRGKEQLAKRKTFSLVKEKKAARTLSAILLAFILTWTPYNIMVLVSTFCKDCVPETLWELGYWLCYVNSTINPMCYALCNKAFRDTFRLLLLCRWDKRRWRKIPKRPGSVHRTPSRQC
B6: L65A/T202A: M1 mAChR double mutant, Ala mutation on L65A background (protein, UniProt P11229 1-460, looked up, variant L65A T202A)
Muscarinic acetylcholine …: MNTSAPPAVSPNITVLAPGKGPWQVAFIGITTGLLSLATVTGNLLVLISFKVNTELKTVNNYFLASLACADLIIGTFSMNLYTTYLLMGHWALGTLACDLWLALDYVASNASVMNLLLISFDRYFSVTRPLSYRAKRTPRRAALMIGLAWLVSFVLWAPAILFWQYLVGERTVLAGQCYIQFLSQPIITFGTAMAAFYLPVAVMCTLYWRIYRETENRARELAALQGSETPGKGGGSSSSSERSQPGAEGSPETPPGRCCRCCRAPRLLQAYSWKEEEEEDEGSMESLTSSEGEEPGSEVVIKMPMVDPEAQAPTKQPPRSSPNTVKRPTKKGRDRAGKGQKPRGKEQLAKRKTFSLVKEKKAARTLSAILLAFILTWTPYNIMVLVSTFCKDCVPETLWELGYWLCYVNSTINPMCYALCNKAFRDTFRLLLLCRWDKRRWRKIPKRPGSVHRTPSRQC
B7: L65A/C205A: M1 mAChR double mutant, Ala mutation on L65A background (protein, UniProt P11229 1-460, looked up, variant L65A C205A)
Muscarinic acetylcholine …: MNTSAPPAVSPNITVLAPGKGPWQVAFIGITTGLLSLATVTGNLLVLISFKVNTELKTVNNYFLASLACADLIIGTFSMNLYTTYLLMGHWALGTLACDLWLALDYVASNASVMNLLLISFDRYFSVTRPLSYRAKRTPRRAALMIGLAWLVSFVLWAPAILFWQYLVGERTVLAGQCYIQFLSQPIITFGTAMAAFYLPVTVMATLYWRIYRETENRARELAALQGSETPGKGGGSSSSSERSQPGAEGSPETPPGRCCRCCRAPRLLQAYSWKEEEEEDEGSMESLTSSEGEEPGSEVVIKMPMVDPEAQAPTKQPPRSSPNTVKRPTKKGRDRAGKGQKPRGKEQLAKRKTFSLVKEKKAARTLSAILLAFILTWTPYNIMVLVSTFCKDCVPETLWELGYWLCYVNSTINPMCYALCNKAFRDTFRLLLLCRWDKRRWRKIPKRPGSVHRTPSRQC

Legend:
[1] = tested on: M1 mAChR; assay type: physicochemical; settings: for Stability (βOG in-situ) % L65A control / in-situ stability relative to L65A, in words: 0.82% β-octyl glucoside; for Stability (βOG in-situ) % L65A control: % loss(control)/% loss(mutant), mean±SEM of 3; for in-situ stability relative to L65A, in words: L65A background; for % 3H-NMS retained BOG: whole E. coli BL21 cells, single culture
Procedure: This concentration was determined by analysing wild-type M1 mAChRs expressed in the inner cell membranes of intact E. Coli strain BL21 cells. The cells were pre-labelled with the radiolabelled antagonist 3H—N-methyl scopolamine and resuspended to a pre-determined cell density (Absorbance at 600 nm=2.0) in a chosen buffer (in this case 50 mM sodium phosphate, 1 mM EDTA, pH 7.5). […] The wild-type M1 mAChRs were titrated by the addition of increasing concentrations of beta octyl glucoside dissolved in the same buffer for different times (e.g. 1 h, 2 h, 3 h, 5 h, 15 h) and at different temperatures (e.g. 4° C., 15° C.). The loss of specifically-bound radioligand was then measured after recovering the cells by centrifugation (15000×g, 15 min.). In the example, the centrifugation step was performed on duplicate 1 ml aliquots of the cells. The experiment was repeated 3 times. […] It will be appreciated that the cell density, detergent concentration and other parameters of the assay may be varied to adjust the loss of activity as appropriate.
(a) A state of in-situ destabilisation of a particular membrane protein in a particular cell membrane as a result of the addition of a particular concentration of a particular detergent, can be defined by the loss of the characteristic specific ligand binding activity of the membrane protein for a particular ligand of interest in the presence of a defined concentration of a particular detergent molecule or other solubilising agent.
A preferred version of the assay is destabilisation of a membrane protein-ligand complex in a detergent-enriched membrane. The membrane protein, either in a membrane preparation, or in intact cells in-vivo or ex-vivo, is pre-incubated with a labelled version of the ligand, the label, for instance, being a radioactive label, or a fluorescent label, and the binding step preferably being allowed to proceed to equilibrium, defined as the achievement of a time-invariant level of binding. To define membrane protein-independent, or non-specific, binding the binding step is performed with the addition of a second non-labelled ligand, called the competing ligand, having an appropriate membrane protein-specific pharmacology, at a concentration sufficient fully to occupy the binding sites of the membrane protein and thereby exclude the binding of the labelled ligand. The difference between the binding of the labelled ligand in the absence and presence of the competing ligand is defined as the specific binding of the labelled ligand. Measurement of binding requires a suitable method for separating and measuring bound ligand. Characteristically, this involves centrifugation of intact cells or membranes for a time and at a centrifugal force adequate to pellet them (for instance, 15000×g for 15 min in the case of E. coli cells, or 100,000×g for plasma membrane preparations), or filtration of a membrane suspension e.g. through a suitable filter paper such as glass fibre paper e.g. GF-B or GF-C followed by counting of radioactivity. Alternatively, it might involve the measurement of an optical signal such as enhancement of fluorescence emission in the case of fluorescent ligands.
To perform the in-situ destabilisation assay, a pre-determined concentration of the detergent or other destabilising agent of choice is mixed with a membrane or cell suspension containing the pre-labelled membrane protein in an appropriate buffer composition at a particular temperature and for a particular time, determined as described below.

[2] = tested on: M1 mAChR; experiment: thermal stability (Tm) of partially purified [3H]NMS-labelled receptors in 0.1% dodecyl-β-maltoside; assay type: physicochemical, rat; settings: 0.1% DDM; for Tm (0.1% DDM): incubation time 30 min, mean±range/SEM; for thermal stability (Tm) relative to L65A, in words: partially purified mutants
Procedure: For measurements of thermal melting temperature (Tm), [3H]NMS-labelled receptors were partially purified by immobilized metal ion affinity chromatography from cultures grown from single clones expressed in E. Coli BL21 cells, essentially as described in Hulme and Curtis, 1998 (21). Tm measurements were carried out after gel-filtration of partially purified receptors into 50 mM sodium phosphate, 5 mM β-mercaptoethanol and 0.1% dodecyl-β-maltoside (DDM), using an incubation time of 30 min. Values were tabulated as mean±range/SEM of 2 or more independent measurements (Table 3).

Molecule | Stability (βOG in-situ) % L65A control ([1]; 3 h, 4° C.) [% L65A control] | in-situ stability relative to L65A, in words [1] | Tm (0.1% DDM) [2] [°C] | thermal stability (Tm) relative to L65A, in words [2] | % 3H-NMS retained BOG ([1]; 0.82% BOG, 3 h, 4° C., listed as L65V 1) [%] | % 3H-NMS retained BOG ([1]; 0.82% BOG, 3 h, 4° C., listed as L65V 2) [%] | % loss/wt ([1]; 0.82% BOG, 3 h, 4° C., % loss relative to wild-type control) | mean % retained ([1]; 0.82% BOG, 3 h, 4° C., mean of the cultures) [%]
B1 | 136 ± 9 | more stable | 31.0 ± 0.4 | increased stability |  |  |  | 
B2 | 175 ± 61 | enhanced stability in 2 out of 3 experiments | 25.3 ± 0.5 | Reduced stability |  |  |  | 
B3 | 125 ± 16 |  | 29.8 ± 1.0 |  |  |  |  | 
B4 | 74 ± 16 |  | 30.2 ± 0.5 |  |  |  |  | 
B5 | 115 |  | 32.6 ± 0.4 | more stable than L65A | 81 | 95 | 0.23 | 88
B6 | 94 ± 1 |  | 31.1 ± 0.2 | marginal increase |  |  |  | 
B7 | 106 ± 5 |  | 28.1 ± 0.1 |  |  |  |  | 
